Assays:
STAT3 = assay: Inhibition of IFN-γ-induced STAT phosphorylation in PANC-1 cells (western blot), STAT3; assay type: cell-based
Description: (§1) PANC-1 Cells (KCLB, Seoul, South Korea) were treated with 10 ng/ml IFN-γ (R&D systems, Abingdon, UK) for 15 min and treated with either DMEM (vehicle) or 10 μM aMTD/SD-fused SOCS3 recombinant proteins for 2 hrs. The cells were lysed in RIPA lysis buffer (Biosesang, Seongnam, Korea) containing proteinase inhibitor cocktail (Roche, Indianapolis, Ind., USA), incubated for 15 min at 4° C., and centrifuged at 13,000 rpm for 10 min at 4° C. Equal amounts of lysates were separated on 10% SDS-PAGE gels and transferred to a nitrocellulose membrane. The membranes were blocked using 5% skim milk in TBST and for western blot analysis incubated with the following antibodies: anti-phospho-STAT1 (Cell Signaling Technology, USA) and anti-phospho-STAT3 (Cell Signaling Technology, USA), then HRP conjugated anti-rabbit secondary antibody (Santacruz).
as §1, with “(vehicle) or 1, 5, 10 μM” for “(vehicle) or 10 μM”, “following antibodies: anti-phospho-STAT3 (Cell” for “following antibodies: anti-phospho-STAT1 (Cell Signaling Technology, USA) and anti-phospho-STAT3 (Cell”

[1] = system: Bcl-2, NF-κB (p-p65), cleaved caspase-3 in Hep3B cells; assay: Immunoblotting of apoptosis-related proteins; assay type: cell-based, human; settings: 10 μM, 24 hr
Description: (§2) Cells were treated for 24 hr with 10 μM HS3B or HM165S3B proteins, lysed in RIPA lysis buffer containing proteinase inhibitor cocktail, incubated for 15 min at 4° C., and centrifuged at 13,000 rpm for 10 min at 4° C. Equal amounts of lysates were separated on 15% SDS-PAGE gels and transferred to a nitrocellulose membrane. The membranes were blocked using 5% skim milk or 5% Albumin in TBST and incubated with the following antibodies: anti-Bcl-2 (Santa Cruz biotechnology), anti-Cleaved Caspase 3 (Cell Signaling Technology), anti-phospho-p65 and anti-p65 (Cell Signaling Technology), then HRP conjugated anti-mouse or anti-rabbit secondary antibody. The expression of each protein was determined by immunoblotting with indicated antibodies. An antibody against β-actin was used as a loading control.

[2] = system: Bcl-2, NF-κB (p-p65), cleaved caspase-3 in HepG2 cells; assay: Immunoblotting of apoptosis-related proteins; assay type: cell-based, human; settings: 10 μM, 24 hr
Description: as §2

Hep3B2.1-7 tumor = assay: Anti-tumor activity in cell-derived xenograft model; assay type: in vivo, Balb/c nu/nu mice; settings: IV 600 μg/head for 21 days
Description: Female Balb/c^nu/nu mice (5-week-old, Doo-Yeol Biotech Co. Ltd. Korea) were subcutaneously implanted with Hep3B2.1-7 tumor block (1 mm^3) into the left back side of the mouse. […] Tumor size was monitored by measuring the longest (length) and shortest dimensions (width) once a day with a dial caliper, and tumor volume was calculated as width2×length×0.5.

PANC-1 cells = assay: Apoptotic cell analysis by TUNEL assay in pancreatic carcinoma cells; assay type: cell-based; settings: PANC-1, 10 uM
Description: PANC-1 cells (pancreatic carcinoma cell line) were seeded in a 16-well chamber slide at a density of 5×10^3 cells/well, and then treated with 10 uM of aMTD/SD-fused SOCS3 for 24 hours. Apoptotic cells were analyzed using terminal dUTP nick-end labeling (TUNEL) assay with In Situ Cell Death Detection kit TMR red (Roche, 4056 Basel, Switzerland). Cells were treated with either 10 μM SOCS3 recombinant protein or buffer alone for 16 hrs with 2% fetal bovine serum (Hyclone, Logan, Utah, USA). Treated cells were washed with cold PBS two times, fixed in 4% paraformaldehyde (PFA, Junsei, Tokyo, Japan) for 1 hr at room temperature, and incubated in 0.1% Triton X-100 for 2 min on the ice. Cells were washed with cold PBS twice, and treated TUNEL reaction mixture for 1 hr at 37° C. in dark, washed cold PBS three times and observed by fluorescence microscopy (Nikon, Tokyo, Japan).

[3] = system: tumor tissues (Hep3B CDX, HepG2 CDX); assay: Biomarker expression in xenograft tumor tissues (RT-PCR, Western blotting, IHC); assay type: in vivo, Balb/c nu/nu mice
Description: Tumor tissues were finely minced using a homogenizer according to the manufacturer's protocol of Hybrid-R (geneall, Korea), and then mRNA was isolated therefrom. 1 ug of mRNA thus separated was used to synthesize cDNA using an Accupower RT Premix (Bioneer, Korea). PCR was performed using 2 ul of cDNA and the primers of Table 45. PCR was performed using an Accupower PCR Premix (Bioneer, Korea) for 30 cycles consisting of denaturing (95° C.), annealing (60° C.), and extending (72° C.) for 45 seconds each.
Immunohistochemistry (IHC) Tissue samples were fixed in 4% Paraformaldehyde (Duksan, South Korea) for 3 days, dehydrated, cleared with xylene and embedded in Paraplast. Sections (6 μm thick) of tumor were placed onto poly-L-lysine coated slides. To block endogenous peroxidase activity, sections were incubated for 15 min with 3% H2O2 in methanol. After washing three times with PBS, slides were incubated for 30 min with blocking solution (5% fetal bovine serum in PBS). Mouse anti-Bax antibody (sc-7480, Santa Cruz Biotechnology, SantaCruz, Calif., USA) and rabbit anti-VEGF (ab46154, Abcam, Cambridge, UK) were diluted 1:1000 (to protein concentration 0.1 μg/ml) in blocking solution, applied to sections, and incubated at 4° C. for 24 hrs. After washing three times with PBS, sections were incubated with biotinylated mouse and rabbit IgG (Vector Laboratories, Burlingame, Calif., USA) at a 1:1000 dilution for 1 hr at room temperature, then incubated with avidin-biotinylated peroxidase complex using a Vectorstain ABC Kit (Vector Laboratories, Burlingame, Calif., USA) for 30 min at room temperature. After the slides are reacted with oxidized 3, 3-diaminobenzidine as a chromogen, they were counterstained with Harris hematoxylin (Sigma-Aldrich, USA). Permanently mounted slides were observed and photographed using a microscope equipped with a digital imaging system (ECLIPSE Ti, Nikon, Japan).
mRNA levels were analyzed using the tumor tissues removed at 2 weeks (Hep3B CDX, day 35) or 3 weeks (HepG2 CDX, day 42) after termination of drug administration to analyze changes in expressions of major biomarker genes by iCP-SOCS3.
Further, tumors removed at 2 weeks (Hep3B CDX, day 35) or 3 weeks (HepG2 CDX, day 42) after termination of drug administration were used to perform Western blotting and IHC, and increase or decrease in the expressions of cancer activity regulating factors by iCP-SOCS3 was observed.

[4] = day 35 (Hep3B CDX) or day 42 (HepG2 CDX)

B1: HM165S3B: His-tagged recombinant protein of aMTD165, human SOCS3 and solubilization domain B; prototype improved cell-permeable SOCS3 (protein)
chain: MGSSHHHHHHSSGLVPRGSHMALAVPVALAIVPVTHSKFPAAGMETSRPLDTSLRLKTFSSKSEYQLVVNAVRKLQESGFYWSAVTGGEANLLLSAEPAGTFLIRDSSDQRHFFTLSVKTQSGTKNLRIQCEGGSFSLQSDPRSTQPVPRFDCVLKLVHHYMETPPPGAPSFPSPPTEPSSEVPEQPSAQPLPGSPPRRAYYIYSGGEKIPLVLSRPLSSNVATLQHLCRKTVNGHLDSYEKVTQLPGPIREFLDQYDAPLGSMAEQSDKDVKYYTLEEIQKHKDSKSTWVILHHKVYDLTKFLEEHPGGEEVLGEQAGGDATENFEDVGHSTDARELSKTYIIGELHPDDRSKIAKPSETL
modifications: Amino acid sequence of HM165S3B
IFN-γ-induced phosphorylation of STAT3 (STAT3; PANC-1, 10 ng/ml IFN-γ 15 min, 10 μM protein 2 hrs): suppressed IFN-γ-induced phosphorylation of STAT1 and STAT3 | IFN-γ-induced phosphorylation of STAT3 (STAT3; PANC-1, 10 ng/ml IFN-γ 15 min, 1, 5, 10 μM protein 2 hrs): suppressed IFN-γ-induced phosphorylation of STAT3 in dose dependent manner | expression of Bcl-2, Hep3B [1]: dramatically reduced | expression of NF-κB (p-p65), Hep3B [1]: dramatically reduced | level of cleaved caspase-3, Hep3B [1]: increased | expression of Bcl-2, HepG2 [2]: dramatically reduced | expression of NF-κB (p-p65), HepG2 [2]: dramatically reduced | level of cleaved caspase-3, HepG2 [2]: increased | tumor growth inhibition at day 21 (Hep3B2.1-7 tumor): 80% | tumor growth inhibition at day 35 (Hep3B2.1-7 tumor; 2 weeks after termination): 70% | induction of cell death (TUNEL) (PANC-1 cells): induced death of the largest number of cancer cells | expression of Bax in tumor tissues ([3]; Western blotting and IHC): increased | expression of Bcl-2 in tumor tissues ([3]; Western blotting and IHC): decreased | expression of VEGF in tumor tissues ([3]; Western blotting and IHC): remarkably decreased | expression of p21 in tumor tissues ([3]; Western blotting and IHC): increased | expression of GOLPH2 in tumor tissues [3, 4]: remarkably reduced | mRNA expressions of Bax, cyclinD1, cyclinE, PCNA, VEGF, FAK-related genes in tumor tissues [3, 4]: significantly regulated

— patent US10385103B2, “Cell-permeable (ICP)-SOCS3 recombinant protein and uses thereof” (CELLIVERY THERAPEUTICS, INC., priority 2014, dated 2019)
